The data set deals with HA-ZFP-5475-KOX1 (Artificial). Kind of data set: ChIP with anti-HA in HEK293 cells, relative to GAPDH control; GFP-KOX and non-specific ZFP TF gave no significant enrichment. On the procedure:
FIG. 2A is a graph depicting repression of CHK2 expression by ZFP-5475 in cultured cells. Black bars show mRNA levels upon administration of 250 ng of plasmid. Gray bars shown mRNA levels upon administration of 62.5 ng of plasmid and the white bars show mRNA levels upon administration of 15 ng of plasmid. HEK293 cells transfected with the plasmids indicated were assayed for CHK2 mRNA by quantitative RT-PCR (TaqMan) after 72 hrs. The CHK2 mRNA levels were normalized relative to an internal control of GAPDH mRNA, and are expressed as this ratio. Charts represent data from a minimum of two independent experiments, with means and standard deviations shown. Transfection efficiency was assessed in each independent experiment via the use of a GFP expression plasmid control, in all experiments an apparent efficiency of 80-90% GFP positive cells was observed. FIG. 2B is a graph depicting binding of ZFP-5475 to its intended target site within the CHK2 promoter in vivo. […] Enrichment was quantified by RT-PCR Results are expressed as the fold-increase of the ratio to the GAPDH control relative to the results for non-transfected cells, the value of which is arbitrarily set to 1. The same samples were analyzed with primers specific for the p16 locus as a second internal control (open bars). […]

B1: CHK2 promoter ZFP-5475 target site (dsDNA)
DNA 1: ACCCGGGTTCCCCTCGGG
DNA 2: CCCGAGGGGAACCCGGGT
Turning to B1, the binding signal is around 65 fold enrichment.
